These results are taken from patent US20040258656.

Data set [1] addresses T1, TGFβ2 (transforming growth factor beta 2) (Homo sapiens) (UniProt P61812).
T1 sequence: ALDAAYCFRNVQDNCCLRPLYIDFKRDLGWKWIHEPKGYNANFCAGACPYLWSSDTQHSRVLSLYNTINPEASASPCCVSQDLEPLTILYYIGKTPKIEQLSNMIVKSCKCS
In words: filter. The following applies: 2'-F C and U.

The target in data set [2] is T2, TGFβ3 (transforming growth factor beta 3) (Homo sapiens) (UniProt P10600).
T2 sequence: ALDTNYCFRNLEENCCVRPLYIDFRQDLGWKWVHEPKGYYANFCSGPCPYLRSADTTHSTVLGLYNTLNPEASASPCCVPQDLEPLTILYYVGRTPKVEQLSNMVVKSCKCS
In words: filter. The settings on record: 2'-F C and U; round 0 pool.

In data set [1] (biased round 0 pool, protein excess), “GGGAGGACGAUGCGGNNNNNNNNNNNNNNNNNNNNNNNNNNNNNNNNNNCAGACGACUCGCCCGA [34N7.21a-21 biased round 0 pool]” gave a Kd of 0.87 µM. This counts as sub-micromolar. Take “GGGAGGACGAUGCGGNNNNNNNNNNNNNNNNNNNNNNNNNNNNNNNNNNNNNNNNCAGACGACUCGCCCGA [round 0 40N7 pool]”: the Kd was above 10 µM in data set [1] (round 0 pool, printed as >10 [M) and above 10 µM in data set [2].
